Results published in US20090318342A1, “Compounds” (IMPERIAL INNOVATIONS LIMITED, priority 2005, published 2009).

Legend:
[1] = target: T1, ADAMTS-4 (as used in Example 4; form not stated) (Homo sapiens (Human)) (UniProt O75173); assay: GST-IGD-FLAG substrate assay, Ki(app)
T1 sequence: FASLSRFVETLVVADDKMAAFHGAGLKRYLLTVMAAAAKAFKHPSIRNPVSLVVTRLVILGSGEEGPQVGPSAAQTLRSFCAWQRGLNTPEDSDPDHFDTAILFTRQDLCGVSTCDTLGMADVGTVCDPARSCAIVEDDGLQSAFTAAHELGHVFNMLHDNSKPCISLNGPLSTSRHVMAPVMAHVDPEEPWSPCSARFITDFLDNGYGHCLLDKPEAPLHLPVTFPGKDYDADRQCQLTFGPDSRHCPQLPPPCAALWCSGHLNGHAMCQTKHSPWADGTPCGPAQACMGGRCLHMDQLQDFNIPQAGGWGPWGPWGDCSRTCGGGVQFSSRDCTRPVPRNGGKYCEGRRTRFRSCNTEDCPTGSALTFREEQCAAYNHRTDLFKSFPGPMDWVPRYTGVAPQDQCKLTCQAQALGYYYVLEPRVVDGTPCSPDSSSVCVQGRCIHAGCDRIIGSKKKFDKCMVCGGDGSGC

[2] = target: ADAMTS-5 (Homo sapiens (Human)) (UniProt Q9UNA0); assay: GST-IGD-FLAG substrate assay, Ki(app)
[3] = target: gelatinase A (MMP-2) (Homo sapiens (Human)) (UniProt P08253); assay: enzyme inhibition kinetics, Ki(app), 1 nM MMP-2
[4] = target: full-length collagenase 1 (MMP-1) (Homo sapiens (Human)) (UniProt P03956); assay: enzyme inhibition kinetics, Ki(app), 5 nM MMP-1
[5] = target: catalytic domain of stromelysin 1 (MMP-3(ΔC)) (Homo sapiens (Human)) (UniProt P08254); assay: enzyme inhibition kinetics, Ki(app), 1 nM MMP-3(ΔC)
[6] = target: catalytic domain of membrane-type 1 MMP (MMP-14(CD)) (Homo sapiens (Human)) (UniProt P50281); assay: enzyme inhibition kinetics, Ki(app), 5 nM MMP-14(CD)
[7] = target: catalytic domain of stromelysin 1 (MMP-3(ΔC)) (Homo sapiens (Human)) (UniProt P08254); assay: enzyme inhibition kinetics, Ki(app), as in Example 1
[8] = target: full-length collagenase 1 (MMP-1) (Homo sapiens (Human)) (UniProt P03956); assay: as above
[9] = target: gelatinase A (MMP-2) (Homo sapiens (Human)) (UniProt P08253); assay: as above
[10] = target: full-length collagenase 1 (MMP-1) (Homo sapiens (Human)) (UniProt P03956); assay: MMP-1 inhibition under the conditions used for TACE activity measurements
Target sequence in this assay (P03956 100-469 limits assumed): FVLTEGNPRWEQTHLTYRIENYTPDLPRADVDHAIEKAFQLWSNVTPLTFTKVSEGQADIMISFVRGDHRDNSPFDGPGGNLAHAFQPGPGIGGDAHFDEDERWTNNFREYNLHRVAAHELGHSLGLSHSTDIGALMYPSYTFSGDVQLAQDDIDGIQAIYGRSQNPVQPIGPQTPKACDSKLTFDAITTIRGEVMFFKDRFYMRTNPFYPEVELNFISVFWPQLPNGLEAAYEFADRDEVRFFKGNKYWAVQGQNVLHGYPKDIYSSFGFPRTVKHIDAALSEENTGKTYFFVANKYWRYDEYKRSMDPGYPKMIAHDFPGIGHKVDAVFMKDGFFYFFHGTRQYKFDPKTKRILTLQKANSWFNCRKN

[11] = target: soluble form of TACE in which the transmembrane and C-terminal cytoplasmic domains are deleted (TACE R651) (human) (UniProt P78536); assay: TACE inhibition kinetics, Ki(app), pH 9.0, fit with equation 3 (cooperative)
[12] = target: T2, recombinant human ADAMTS-4 lacking the C-terminal spacer domain (human) (UniProt O75173); assay: inhibition of aggrecan cleavage by 0.5 nM ADAMTS-4, anti-GELE Western blot, densitometry
T2 sequence: T1 sequence

[13] = target: soluble form of TACE in which the transmembrane and C-terminal cytoplasmic domains are deleted (TACE R651) (human) (UniProt P78536); assay: TACE inhibition kinetics at pH 7.5

Chain of (-1A)N-TIMP-3 (chain): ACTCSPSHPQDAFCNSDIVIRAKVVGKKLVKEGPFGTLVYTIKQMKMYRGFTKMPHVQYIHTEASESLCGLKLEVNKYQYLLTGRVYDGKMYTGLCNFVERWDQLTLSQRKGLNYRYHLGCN

(-1A)N-TIMP-3
Ki [1]: 25 nM
Ki [2]: 1.9 nM
Ki [3]: 614 nM
Ki [4]: 1300 nM
Ki [5]: 3300 nM
Ki [6]: 941 nM
Ki [7]: > 1000 nM
Ki [8]: > 500 nM
Ki [9]: > 1000 nM
Ki [10]: 412 nM
Ki [11]: 33.9 nM
Ki [12]: 18 nM

N-TIMP-3(T2G)
Ki [13]: 46 nM
Ki [1]: 20 nM
Ki [2]: 1.5 nM
Ki [3]: 4200 nM
Ki [4]: 547 nM
Ki [5]: > 10000 nM
Ki [6]: 2300 nM
Ki [7]: > 1000 nM
Ki [8]: > 500 nM
Ki [9]: > 1000 nM
Ki [11]: 35.6 nM
Ki [12]: 15 nM
